For experiment [1], the target named is T1, PACAP38 (Pituitary Adenylate Cyclase-Activating Polypeptide, 38 amino acids) (human, not fully specified; the C-terminal lysine is amidated).
T1 peptide: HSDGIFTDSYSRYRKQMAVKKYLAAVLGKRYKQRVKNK
The experiment is described as follows: cell-based or functional assay.

The target in experiment [2] is T2, PACAP27 (Pituitary Adenylate Cyclase-Activating Polypeptide, 27 amino acids) (human, the C-terminal leucine is amidated).
T2 peptide: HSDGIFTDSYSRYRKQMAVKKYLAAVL
The experiment is described as follows: cell-based or functional assay.

The target in experiment [3] is T1, PACAP38 (Pituitary Adenylate …). The experiment is described as follows: cell-based or functional assay.
For experiment [4] the target is unchanged. The experiment is described as follows: cell-based or functional assay.
Experiment [5] has as its target T3, VIP (Vasoactive Intestinal Peptide) (human).
T3 construct: also called human VIP
T3 peptide: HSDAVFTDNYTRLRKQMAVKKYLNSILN
The experiment in a line: SPR (ProteOn XPR36), antibody amine-coupled, peptide analyte, 1:1 Langmuir fit.

Experiment [6] addresses T1, PACAP38 (Pituitary Adenylate …). Described as above. On the procedure:
(§1) Binding affinities of monoclonal antibodies for human PACAP were estimated using SPR on the PROTEON™ XPR36 (Bio-Rad, Hercules, CA). Antibody was immobilized to the surface of general amine coupling (“GLC” or “GLM”) Chips (Bio-Rad, Hercules, CA). […] Antigen (ranging from 1.23 nM to 100 nM) was typically run sequentially with association times of 2-4 minutes and dissociation times of 3-120 minutes grouped with the PROTEON™ Manager Software (v3.1.0.6 (Bio-Rad, Hercules, CA)) and fitted using a 1:1 Langmuir binding model. Surfaces were regenerated between analyte queries using 0.85% Phosphoric Acid.

The target in experiment [7] is T2, PACAP27 (Pituitary Adenylate …). The description is as above. On the procedure: as §1
Experiment [8] shares this target. The experiment is described as follows: inhibition of 0.1 nM 125I-PACAP27 binding to membranes with human PAC1-R long isoform, filter binding. On the procedure:
To identify antibodies that block PACAP27 binding to PAC1-R, antibodies at an initial concentration of 30 nM were diluted in incubation buffer (50 mM Hepes pH 7.4, 1 mM CaCl₂, 5 mM MgCl₂, 0.2% BSA) and serial 1:3 dilutions were performed. Antibody dilutions (30 nM, 10 nM, 3 nM, 1 nM, 0.3 nM, 0.1 nM, 0.03 nM, 0.01 nM, 0.003 nM and 0.001 nM) were then mixed and pre-incubated at 25° C. for 30 minutes with 0.1 nM of ¹²⁵I-labelled PACAP27 in incubation buffer. The antibody: ¹²⁵I-labelled PACAP27 mixture was then added to 0.5 μg aliquots of cell membranes derived from Chem-1 cells expressing human recombinant PAC1-R long isoform in incubation buffer. The mixture was then incubated for 1 hour at 25° C. Following incubation, the samples were filtered and washed. Afterward, the filters were counted to quantitate ¹²⁵I-labelled PACAP27. As an experimental control, non-specific binding to the cell membranes was estimated using 0.1 μM of […] PACAP27.

Experiment [9] has as its target T4, PAC1-R on PAC1-R-expressing PC-12 cells (UniProt P32215 20-523).
T4 construct: whole, on cells; also called PAC1 receptor
T4 sequence (looked up): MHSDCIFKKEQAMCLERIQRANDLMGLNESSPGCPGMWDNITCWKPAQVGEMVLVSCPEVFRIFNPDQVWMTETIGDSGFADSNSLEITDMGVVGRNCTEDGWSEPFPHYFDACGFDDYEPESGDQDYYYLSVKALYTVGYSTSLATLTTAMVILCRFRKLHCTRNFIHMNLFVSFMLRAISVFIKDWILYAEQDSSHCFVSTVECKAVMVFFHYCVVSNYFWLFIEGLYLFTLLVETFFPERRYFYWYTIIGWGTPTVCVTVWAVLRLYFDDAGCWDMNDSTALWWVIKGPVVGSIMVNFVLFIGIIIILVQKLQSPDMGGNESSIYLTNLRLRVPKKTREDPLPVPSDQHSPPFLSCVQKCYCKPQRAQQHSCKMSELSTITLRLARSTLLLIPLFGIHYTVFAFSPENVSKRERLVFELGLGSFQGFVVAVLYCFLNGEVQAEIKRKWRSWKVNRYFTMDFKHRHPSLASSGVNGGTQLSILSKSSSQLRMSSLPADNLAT
The experiment is described as follows: cell surface binding assay (DELFIA TRF): antibody pre-incubated with PACAP38, added to PAC1-R-expressing PC-12 cells, detected with Eu anti-human IgG. On the procedure:
Cells were initially seeded at 1×10⁵ cells/well in a solution of complete RPMI (“cRPMI”: RPMI medium supplemented with 10% sterile heat-inactivated FBS and 1% sterile antibiotic/antimycotic)+10% FBS, and the plates were allowed to incubate overnight at 37° C. On the day of the binding assay, antibodies at an initial concentration of 15 μg/ml were diluted at a 1:3 ratio in DELFIA® binding buffer (50 mM Tris, 150 mM NaCl, 0.1% azide, 2% horse serum) (Perkin-Elmer, Waltham, MA) to a total volume of 60 μL in a separate 96 well round bottom plate. PACAP38 was prepared for the binding assay by diluting it in DELFIA® binding buffer to a concentration of 200 nM, and then 60 μl of the diluted PACAP38 was added to each of the antibody-containing wells to form antibody: antigen complexes. Following addition of PACAP38, the antibody: antigen complexes were incubated at room temperature on a shaker for 1 hour. Separately, the PC-12 cells were prepared for addition of antibody: antigen complexes by washing the cells two times with DELFIA® wash buffer (50 mM Tris, 150 mM NaCl, 0.1% Azide) (Perkin-Elmer, Waltham, MA). After washing the cells two times and following the 1 hour room temperature incubation of the antibody: antigen complexes, 50 μl of the antibody: antigen complex was added to each well containing cells. The mixtures of cells and antibody: antigen complexes were then incubated for 30 minutes at room temperature. Following this 30 minute incubation, each mixture was washed two times with DELFIA® wash buffer (Perkin-Elmer, Waltham, MA).
DELFIA® Europium labeled anti-human IgG detection reagent (Cat #1244-330, Perkin-Elmer, Waltham, MA) was diluted to a concentration of 300 ng/ml in DELFIA® Binding Buffer. Following dilution, 50 μl of the anti-human IgG detection reagent was added to each well containing cells, and a 30 minute incubation at room temperature followed this addition of IgG detection reagent. After completion of the 30 minute room temperature incubation, the cells were then washed two times with DELFIA® wash buffer. Next, 50 μl of DELFIA® Enhancement Solution (Cat #1244-105, Perkin-Elmer, Waltham, MA) was added to each well containing cells for a final 15 minute room temperature incubation with shaking. The plates were then read (TRF, excitation 330 nm, emission 620 nm) on a SPECTRAMAX® (Molecular Devices, Sunnyvale, CA) plate reader.

Experiment [10] addresses T1, PACAP38 (Pituitary Adenylate …). The experiment is described as follows: SPR (ProteOn XPR36), antibody amine-coupled, peptide analyte, 1:1 Langmuir fit. On the procedure: (§2) Binding affinities of monoclonal antibodies for human PACAP were estimated using SPR on the PROTEON™ XPR36 (Bio-Rad, Hercules, CA). Antibody was immobilized to the surface of general amine coupling (“GLC″ or “GLM”) Chips (Bio-Rad, Hercules, CA). […] Antigen (ranging from 1.23 nM to 100 nM) was typically run sequentially with association times of 2-4 minutes and dissociation times of 3-120 minutes grouped with the PROTEON™ Manager Software (v3.1.0.6 (Bio-Rad, Hercules, CA)) and fitted using a 1:1 Langmuir binding model. Surfaces were regenerated between analyte queries using 0.85% Phosphoric Acid, 0.5% SDS, and 0.1N NaOH.

The target in experiment [11] is T2, PACAP27 (Pituitary Adenylate …). The experiment is described as above. On the procedure:
as §2

In experiment [12] the target is T3, VIP (Vasoactive Intestinal Peptide). Described as above.

Positions count from the first letter of the chain named. Like-named read-outs stand apart in the source and are kept apart here.

B1: Ab10.H3 (antibody, human IgG1, kappa, N297A)
heavy: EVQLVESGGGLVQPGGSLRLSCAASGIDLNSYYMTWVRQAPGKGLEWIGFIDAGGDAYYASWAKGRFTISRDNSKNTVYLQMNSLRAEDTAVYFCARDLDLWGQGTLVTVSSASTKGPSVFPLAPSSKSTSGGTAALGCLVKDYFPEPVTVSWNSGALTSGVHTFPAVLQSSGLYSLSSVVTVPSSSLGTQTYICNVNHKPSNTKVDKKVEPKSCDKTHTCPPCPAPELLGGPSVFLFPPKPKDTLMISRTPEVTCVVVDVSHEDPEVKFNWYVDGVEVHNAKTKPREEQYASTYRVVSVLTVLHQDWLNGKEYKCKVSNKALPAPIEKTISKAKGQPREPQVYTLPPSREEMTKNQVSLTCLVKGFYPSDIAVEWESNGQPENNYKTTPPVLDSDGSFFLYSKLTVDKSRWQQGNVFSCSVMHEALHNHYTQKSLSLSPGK
light: DIQLTQSPSTLSASVGDRVTITCQSSESVYGNYLAWFQQKPGKAPKFLIYEASKLESGVPSRFSGSGSGTEFTLTISSLQPDDFATYYCAGGDISEGVAFGGGTKVEIKRTVAAPSVFIFPPSDEQLKSGTASVVCLLNNFYPREAKVQWKVDNALQSGNSQESVTEQDSKDSTYSLSSTLTLSKADYEKHKVYACEVTHQGLSSPVTKSFNRGEC
notes: Full-length humanized variant of Ab10
Turning to B1, in experiment [1], the “Inhibition of 0.1 nM PACAP38-induced PAC1-R mediated cAMP increase IC50 (pM)” value came out at 30.7 pM. Further, the “Inhibition of 1 nM PACAP27-induced PAC1-R mediated cAMP increase IC50 (pM)” value in [2] worked out at 321 pM. Besides, the “Inhibition of 5 nM PACAP38-induced human VPAC1-R mediated cAMP increase IC50 (pM)” value in [3] came to 1520 pM. Also, the “Inhibition of 1 nM PACAP38-induced human VPAC2-R mediated cAMP increase IC50 (pM)” value in experiment [4] was found to be 301 pM. Further, the Kd was 91 nM in [5], not above 0.022 nM in [6] and not above 0.059 nM in experiment [7]. For the same molecule, the results for the off-rate constant (koff) in [5], in experiment [6] and in [7] were 0.013 s⁻¹, not above 1e-05 s⁻¹ and not above 1e-05 s⁻¹, respectively. Besides, the on-rate constant (kon) came to 140000 M⁻¹ s⁻¹ in experiment [5], 450000 M⁻¹ s⁻¹ in [6] and 170000 M⁻¹ s⁻¹ in experiment [7]. The half-inhibitory concentration (IC50) in [8] is 0.21 nM. In experiment [9], the binding result was “no binding (tested: about 70 nM)”.

B2: Ab21.H4 (antibody, human IgG1, kappa, N297A)
heavy: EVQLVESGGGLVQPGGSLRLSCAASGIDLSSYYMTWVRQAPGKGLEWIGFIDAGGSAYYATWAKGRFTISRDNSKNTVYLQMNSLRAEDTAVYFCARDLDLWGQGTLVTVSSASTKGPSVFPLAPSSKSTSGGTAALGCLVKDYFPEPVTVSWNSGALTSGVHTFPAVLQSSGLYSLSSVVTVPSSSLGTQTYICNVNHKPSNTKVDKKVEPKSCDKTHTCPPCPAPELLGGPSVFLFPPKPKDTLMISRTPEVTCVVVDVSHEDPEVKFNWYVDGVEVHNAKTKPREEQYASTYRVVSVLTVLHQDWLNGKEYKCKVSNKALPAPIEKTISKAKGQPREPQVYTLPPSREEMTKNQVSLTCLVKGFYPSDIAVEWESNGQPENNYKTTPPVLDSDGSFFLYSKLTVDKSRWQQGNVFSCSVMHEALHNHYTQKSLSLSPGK
light: B1 light with Q3V, Q24K, N32D, F47Q, E51D, K54T, E56A, D93Y, I94V, E96A
notes: Full-length humanized variant of Ab21
As for B2, the “Inhibition of 0.1 nM PACAP38-induced PAC1-R mediated cAMP increase IC50 (pM)” value in [1] was found to be 83.4 pM. Also, the “Inhibition of 1 nM PACAP27-induced PAC1-R mediated cAMP increase IC50 (pM)” value in experiment [2] was determined as 275 pM. The “Inhibition of 5 nM PACAP38-induced human VPAC1-R mediated cAMP increase IC50 (pM)” value in experiment [3] is 2830 pM. In addition, in [4], the “Inhibition of 1 nM PACAP38-induced human VPAC2-R mediated cAMP increase IC50 (pM)” value is 2880 pM. In experiment [10], the equilibrium dissociation constant (Kd) was not above 0.0238 nM, the koff is not above 1e-05 s⁻¹ and the kon stood at 420000 M⁻¹ s⁻¹. Moreover, in experiment [11], the dissociation constant (Kd) is not above 0.0351 nM, the koff was not above 1e-05 s⁻¹ and the on-rate constant (kon) came out at 285000 M⁻¹ s⁻¹. In addition, in experiment [12], binding was characterised by a dissociation constant (Kd) of 523 nM, the koff was found to be 0.0289 s⁻¹ and the on-rate (kon) came to 55300 M⁻¹ s⁻¹.

B3: Ab21.H3 (antibody, human IgG1, kappa, N297A)
heavy: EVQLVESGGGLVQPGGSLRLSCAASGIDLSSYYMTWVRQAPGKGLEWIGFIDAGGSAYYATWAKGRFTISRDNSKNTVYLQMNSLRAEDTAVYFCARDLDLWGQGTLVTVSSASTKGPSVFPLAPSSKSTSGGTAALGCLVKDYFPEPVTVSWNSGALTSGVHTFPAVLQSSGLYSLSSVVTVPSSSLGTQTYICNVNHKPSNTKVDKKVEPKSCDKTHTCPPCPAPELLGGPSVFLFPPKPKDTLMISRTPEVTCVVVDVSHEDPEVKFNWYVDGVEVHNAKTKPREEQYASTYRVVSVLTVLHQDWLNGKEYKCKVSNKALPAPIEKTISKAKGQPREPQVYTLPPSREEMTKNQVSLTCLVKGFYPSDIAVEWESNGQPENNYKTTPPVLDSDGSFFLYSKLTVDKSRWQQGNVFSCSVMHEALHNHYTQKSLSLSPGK
light: B1 light with Q24K, N32D, F47Q, E51D, K54T, E56A, D93Y, I94V, E96A
notes: as for B2
Regarding B3, the “Inhibition of 0.1 nM PACAP38-induced PAC1-R mediated cAMP increase IC50 (pM)” value in experiment [1] was determined as 65.3 pM. For the same molecule, the “Inhibition of 1 nM PACAP27-induced PAC1-R mediated cAMP increase IC50 (pM)” value in experiment [2] worked out at 318 pM. Also, in experiment [3], the “Inhibition of 5 nM PACAP38-induced human VPAC1-R mediated cAMP increase IC50 (pM)” value was found to be 2520 pM. The “Inhibition of 1 nM PACAP38-induced human VPAC2-R mediated cAMP increase IC50 (pM)” value in experiment [4] was found to be 1530 pM. The values for the dissociation constant Kd in experiment [10], in experiment [11] and in experiment [12] were not above 0.0223 nM, not above 0.0311 nM and 424 nM, respectively. In addition, the koff was not above 1e-05 s⁻¹ in experiment [10], not above 1e-05 s⁻¹ in experiment [11] and 0.0249 s⁻¹ in experiment [12]. Further, the values for the on-rate constant (kon) in experiment [10], in [11] and in experiment [12] were 449000 M⁻¹ s⁻¹, 322000 M⁻¹ s⁻¹ and 58700 M⁻¹ s⁻¹, respectively.

These data come from patent US20250009876A1 (H LUNDBECK A S, published 2025).
